Results taken from the supplement of paper PMC10126150.
± gives the standard deviation of the averaged measurements.

Tested on: ATP
Experiment: switch fluorescence ratio, 500 uM ATP over buffer (Cy3 cluster intensity, sum of 5 cycles each) (fold (ratio)); higher = stronger signal-on switching upon ATP binding; sequences stand for … in TCGTCGGCAGCGTCAGATGTGTATAAGAGACAGTTTTTTTTTTTTTTTTTTTTTTTTT…TC
Details: aptamer strand: ATP DNA aptamer (quencher-CACCTGGGGGAGTATTGCGGAGGAAGG + anchor), 100 nM annealed; ATP concentration: 500 uM
Method in brief: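 The fluorescence ratio divides summed target-cycle Cy3 intensity by summed buffer-cycle Cy3 intensity for each cluster and is averaged per switch-domain sequence. Cy3-labelled switching-strand clusters on a modified Illumina MiSeq flow-cell were annealed to 100 nM quencher-labelled ATP aptamer, then imaged in selection buffer and again after 15 min with 500 uM ATP at 22 °C. Five such cycles were run, with NaOH stripping and re-annealing between them, and clusters outside 100-1000 RFU were excluded.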
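Also: ATP exposure 15 min at 22 °C before imaging.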

| Sequence | switch fluorescence ratio |
| --- | --- |
| GCGGGGATGC | 1.03 ± 0.075 |
| TATCGTCTGG | 0.981 ± 0.015 |
| TTGAGTTTAC | 1.058 ± 0.0028 |
| TGCTGCAAAG | 0.9943 ± 0.0049 |
| AGGTTTAGAC | 1.01 ± 0.021 |
| AAGCCGATTC | 1.03 ± 0.0068 |
| TTTAATGCTG | 1.01 ± 0.021 |
| AAGCGAACAT | 1.08 ± 0.076 |
| TCACCGACTA | 1.1952 ± 0.00033 |
| CTTGGGGGGG | 0.991 ± 0.02 |
| GCTCAAGCGA | 1.464 ± 0.0035 |
| GCTTCTACTG | 0.988 ± 0.034 |
| CGGGATGGGG | 1 ± 0.041 |
| GGAGATGCAG | 0.969 ± 0.046 |
| TATTACTCAG | 1.03 ± 0.025 |
| CCGGGGGGTA | 1.37 ± 0.017 |
| CTGTATGCGG | 1.02 ± 0.089 |
| TGCTCATTTT | 0.992 ± 0.032 |
| TTTGGGAAGT | 1 ± 0.025 |
| GTTTGTGGAG | 0.9683 ± 0.0071 |
| TCGCGCCTTG | 1.01 ± 0.021 |
| TCTTTGGTGG | 1.03 ± 0.038 |
| TGACCGATCA | 1 ± 0.021 |
| AAAACGCATG | 1.05 ± 0.021 |
| CGAGGTGTGT | 1.009 ± 0.0022 |
| GACTTTAGCG | 1.03 ± 0.023 |

| Sequence | switch fluorescence ratio |
| --- | --- |
| CGCGGCGTTC | 1.023 ± 0.0057 |
| GGAGGCGGAG | 1.002 ± 0.0077 |
| ATGATGGGGT | 1.01 ± 0.06 |
| GCTAAAAAAT | 0.98 ± 0.013 |
| GGGGGCATTA | 0.999 ± 0.016 |
| TATTTTTCAG | 1.03 ± 0.015 |
| AGGAGGAGTT | 1.01 ± 0.053 |
| AAGGTCTGTG | 0.993 ± 0.014 |
| TAGTTTTTGG | 0.994 ± 0.032 |
| CGGCTAGGTC | 1.03 ± 0.012 |
| TTAAATGGG | 0.9799 ± 0.0063 |
| GTAGGAGGTA | 0.9807 ± 0.0039 |
| GGGTCAAGGG | 0.979 ± 0.019 |
| TTTAGATAAC | 1.02 ± 0.044 |
| TAGAAACGGG | 1.02 ± 0.031 |
| ACATGGGGTC | 0.977 ± 0.012 |
| AGTTCATCTT | 0.964 ± 0.015 |
| TCAATGGGCT | 0.9899 ± 0.0092 |
| GACAAAGCGG | 1.07 ± 0.041 |
| AAAACCGTCG | 1.1 ± 0.023 |
| ACTGAGTTGG | 0.986 ± 0.013 |
| GGAAACAGTT | 1 ± 0.032 |
| TCCCAAAGGG | 1.63 ± 0.91 |
| GTTTGAGACG | 0.903 ± 0.044 |
| CGGTTGTGAC | 0.994 ± 0.027 |
| AACGTGGCGT | 1.023 ± 0.0066 |

| Sequence | switch fluorescence ratio |
| --- | --- |
| ATTAGGTTAT | 1 ± 0.048 |
| CATCAGTGGT | 1.03 ± 0.032 |
| ATGGGGTATT | 0.989 ± 0.015 |
| GGATAGGGGA | 1.01 ± 0.017 |
| TTATCGGCCA | 1 ± 0.067 |
| ATAAGAAGCG | 1.02 ± 0.04 |
| GCTTTCGATC | 1.05 ± 0.033 |
| AAATAGGTTT | 1 ± 0.044 |
| TTAGCCCTCA | 0.981 ± 0.014 |
| AGGCACTACA | 1.017 ± 0.0064 |
| TTAGGCGTGG | 1.017 ± 0.006 |
| ATCAAATAGT | 1.01 ± 0.037 |
| CAGCCCTTGA | 1.024 ± 0.0083 |
| AAGTTTGCTA | 1.01 ± 0.031 |
| CGGTAACTAT | 1.02 ± 0.017 |
| AATATAGAAG | 0.984 ± 0.033 |
| TAAGCAGTGG | 1.02 ± 0.022 |
| GAGAAAAAGG | 0.976 ± 0.013 |
| TTTTGTCGTT | 1.03 ± 0.095 |
| GTAACGGAAC | 1.13 ± 0.018 |
| GGGAGAGAGG | 0.984 ± 0.011 |
| TAATGGTCAC | 1.01 ± 0.011 |
| AAAGTCGGGC | 0.946 ± 0.059 |
| CATATATTTT | 1.04 ± 0.058 |
| GGGCTTTAAA | 1.01 ± 0.012 |
| AAAGGGGAAA | 1 ± 0.051 |

| Sequence | switch fluorescence ratio |
| --- | --- |
| AGGCCAGTTG | 1.02 ± 0.012 |
| AAATAAAACT | 1.1 ± 0.19 |
| CTAACGTGAG | 1.02 ± 0.034 |
| GGGGTTTCAG | 1.02 ± 0.012 |
| TGGCGGGATA | 1.009 ± 0.0013 |
| CGTTGAGTTG | 0.986 ± 0.032 |
| TGAGGAAGGT | 1.016 ± 0.009 |
| GGTTTCGTAG | 1.01 ± 0.027 |
| ATGGTAGGCT | 0.98 ± 0.032 |
| TTCTTTTCGT | 0.979 ± 0.041 |
| AAAGACGAT | 1.01 ± 0.017 |
| GCCGTGTTGG | 1 ± 0.032 |
| GGTGGGAGTT | 1.04 ± 0.032 |
| CCATTTTTGG | 0.992 ± 0.011 |
| AGGACTTTAA | 1.0405 ± 0.0001 |
| ATGCGAAGAT | 1.01 ± 0.011 |
| GGGGGGTATA | 1 ± 0.048 |
| AAAGAGGAAG | 0.987 ± 0.02 |
| AAAATGATAT | 0.99 ± 0.02 |
| TTAATAGCGG | 0.997 ± 0.049 |
| ATGTGTCTGG | 0.998 ± 0.011 |
| ATTTCGTCGT | 1.01 ± 0.03 |
| GTATATATAG | 1.02 ± 0.03 |
| ATCGGGGGAC | 0.959 ± 0.021 |
| TTTTAAATGA | 1 ± 0.021 |
| GTGGACAGGG | 1 ± 0.013 |

| Sequence | switch fluorescence ratio |
| --- | --- |
| TATTGGTATG | 1 ± 0.017 |
| AAATGCCACG | 1.06 ± 0.017 |
| GAGTGGTTTT | 0.991 ± 0.063 |
| AGTGTGAGGT | 0.9858 ± 0.0091 |
| TCACATGTCG | 1.02 ± 0.053 |
| TAGAGGAAGC | 1 ± 0.011 |
| AAATAAACGA | 0.98 ± 0.0072 |
| TTTGTTACTA | 1 ± 0.1 |
| ACCGTTCTGA | 1.016 ± 0.0092 |
| CTCTAAATGT | 1.11 ± 0.016 |
| GCTTCGAAGG | 0.993 ± 0.031 |
| TCAGAGGAG | 1.01 ± 0.025 |
| TATCATAAGT | 1.016 ± 0.0077 |
| ATTAATTAGG | 0.989 ± 0.015 |
| CCGAAGGGTT | 1.02 ± 0.077 |
| TAATTCGCGA | 1.15 ± 0.034 |
| TTTCTTATTG | 1.031 ± 0.0085 |
| CAGCACAGAT | 1.015 ± 0.0019 |
| TTTATGGCTT | 1.01 ± 0.046 |
| ATATATCGTT | 0.981 ± 0.024 |
| CCGGGGATCA | 1.01 ± 0.024 |
| CACGTTAGTT | 1.06 ± 0.06 |
| CCGAAGACAG | 3.11 ± 0.21 |
| TCGATAGTTC | 1.03 ± 0.028 |
| ATTATCATGT | 1 ± 0.074 |
| CATGGGGAGT | 0.969 ± 0.024 |

| Sequence | switch fluorescence ratio |
| --- | --- |
| CGAATGCGTT | 0.973 ± 0.021 |
| CATCTTGAAT | 1 ± 0.046 |
| TTATTTTCTG | 1 ± 0.014 |
| GTCGGGCGTA | 0.991 ± 0.016 |
| TCGTGTTCGG | 0.971 ± 0.029 |
| GGTTGGCATG | 0.952 ± 0.03 |
| ATTCATAGTA | 0.9772 ± 0.0064 |
| GCTACCTGGT | 1.02 ± 0.013 |
| AGCATGCCTG | 1.02 ± 0.058 |
| AAAGTGGTTA | 1.01 ± 0.025 |
| TATATGAATA | 1.006 ± 0.0023 |
| TTCTGTCTGG | 0.994 ± 0.021 |
| ACCGTGGGTC | 1.02 ± 0.029 |
| TTTTTTTCCC | 1.01 ± 0.018 |
| GGCTGGCCAT | 1.01 ± 0.025 |
| ATTAGTGTTC | 0.987 ± 0.043 |
| CTGAGCGATG | 1.063 ± 0.0078 |
| GGGCAGCCCG | 0.98 ± 0.014 |
| TGAAGTACTT | 1.06 ± 0.011 |
| TCCATGTTCT | 0.992 ± 0.034 |
| TTTAAGCGGT | 0.996 ± 0.024 |
| TTTCCCGTTG | 1.07 ± 0.12 |
| TACGGTCGCG | 0.9949 ± 0.0036 |
